# The supplement of paper PMC7877785
# ± gives the uncertainty stated by the source.
# Assay: self-splicing fitness, log relative to wild type (ln ratio); higher = more splicing; Tetrahymena group I intron in knt gene, E. coli kanamycin selection, DiMSum; sequences stand for … in CUCUCU…GGAGGGAAAAGUUAUCAGGCAUGCACCUGGUAGCUAGUCUUUAAACCAAUAGAUUGCAUCGGUUUAAAAGGCAAGACCGUCAAAUUGCGGGAAAGGGGUCAACAGCCGUUCAGUACCAAGUCUCAGGGGAAACUUUGAGAUGGCCUUGCAAAGGGUAUGGUAAUAAGCUGACGGACAUGGUCCUAACCACGCAGCCAAGUCCUAAGUCAACAGAUCUUCUGUUGAUAUGGAUGCAGUUCACAGACUAAAUGUCGGUCGGGGAAGAUGUAUUCUUCUCAUAAGAUAUAGUCGGACCUCUCCUUAAUGGGAGCUAGCGGAUGAAGUGAUGCAACACUGGAGCCGCUGGGAACUAAUUUGUAUGCGAAAGUAUAUUGAUUAGUUUUGGAGUACUCGUGGUCG
# Method in brief: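 Six replicate transformations of E. coli BL21(DE3) with a pET-22b(+) library were grown overnight at 37°C or 30°C. The library randomised all eight P1ex-region intron nucleotides, the intron lying in the knt kanamycin-resistance gene, and plates were LB agar with or without 25 μg/mL kanamycin plus 100 μg/mL carbenicillin, 50 μM IPTG and 0.2% rhamnose. Pooled colonies were amplicon-sequenced on an Illumina HiSeq 2500, and fitness is the DiMSum error-weighted combination of wild-type-normalised replicate fold changes, kanamycin versus none.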
Sequence,self-splicing fitness (ln) (30 °C),self-splicing fitness (ln) (37 °C)
CGGAAGCAAUAUUACGAGUC,-2.83 ± 0.22,-2.39 ± 0.31
AUGCAGCAAUAUUACGGGCC,-1.43 ± 0.1,-1.02 ± 0.11
GGGGAGCAAUAUUACGCUGG,-2.98 ± 0.47,-0.764 ± 0.47
GAAGAGCAAUAUUACGAAUG,-2.23 ± 0.4,–
UAAAAGCAAUAUUACGCAGU,-2.66 ± 0.16,-1.3 ± 0.13
CGGGAGCAAUAUUACGCAAU,-3.15 ± 0.39,–
GCACAGCAAUAUUACGUGUG,-3.68 ± 0.16,-2.22 ± 0.14
CGGUAGCAAUAUUACGAUGC,-3.7 ± 0.2,-0.598 ± 0.13
GGGGAGCAAUAUUACGGCGG,–,-0.394 ± 0.41
GCCUAGCAAUAUUACGACAA,-2.19 ± 0.23,-2.22 ± 0.32
GCAAAGCAAUAUUACGAAGA,-1.88 ± 0.18,-2.45 ± 0.23
ACCGAGCAAUAUUACGGCCG,-2.57 ± 0.09,-1.09 ± 0.1
CUACAGCAAUAUUACGCGCU,-3.59 ± 0.28,-1.5 ± 0.23
AUCCAGCAAUAUUACGACGA,-0.497 ± 0.14,0.0611 ± 0.12
GGGUAGCAAUAUUACGUGGC,–,-2.64 ± 0.33
UUAGAGCAAUAUUACGAUAU,-1.72 ± 0.18,-1.54 ± 0.23
GAUCAGCAAUAUUACGAAAU,-0.667 ± 0.081,0.175 ± 0.1
AACUAGCAAUAUUACGUACG,-1.15 ± 0.079,-0.237 ± 0.096
CGCAAGCAAUAUUACGUGGG,-4.69 ± 0.25,-3.16 ± 0.17
CCCAAGCAAUAUUACGUAAG,-3.05 ± 0.19,-1.87 ± 0.16
GGUUAGCAAUAUUACGCUGA,-3.14 ± 0.14,-2.24 ± 0.13
GGGCAGCAAUAUUACGUUCG,-0.761 ± 0.088,-0.431 ± 0.11
UACCAGCAAUAUUACGUUGU,-3.56 ± 0.12,-2.66 ± 0.12
CUUAAGCAAUAUUACGGACG,-0.229 ± 0.085,0.228 ± 0.12
UCACAGCAAUAUUACGUUAA,-2.66 ± 0.12,-1.83 ± 0.11

Sequence,self-splicing fitness (ln) (30 °C),self-splicing fitness (ln) (37 °C)
AUUGAGCAAUAUUACGUCUU,-1.39 ± 0.12,-0.607 ± 0.14
UGGUAGCAAUAUUACGUAGA,-2.54 ± 0.17,-1.16 ± 0.14
GAUUAGCAAUAUUACGGUUG,-1.43 ± 0.12,-1.02 ± 0.15
ACUAAGCAAUAUUACGGCUU,-2.2 ± 0.1,-1.27 ± 0.12
CCCCAGCAAUAUUACGGUGA,-1.76 ± 0.085,-1.77 ± 0.11
AACAAGCAAUAUUACGCACU,0.195 ± 0.069,-0.195 ± 0.083
AUACAGCAAUAUUACGGAAU,-2.34 ± 0.1,-1.54 ± 0.13
ACUGAGCAAUAUUACGGGGA,-2.48 ± 0.17,-1.92 ± 0.18
GCUAAGCAAUAUUACGUCGC,-2.46 ± 0.19,-2.55 ± 0.29
AUCAAGCAAUAUUACGUGGU,-2.83 ± 0.2,-3.11 ± 0.21
ACUCAGCAAUAUUACGUGCA,-0.681 ± 0.095,-0.372 ± 0.11
GCGCAGCAAUAUUACGUCUU,-0.65 ± 0.049,0.336 ± 0.064
CCUAAGCAAUAUUACGGAAC,-3.35 ± 0.3,-1.68 ± 0.24
UACUAGCAAUAUUACGUGGA,-3.03 ± 0.22,-2.47 ± 0.21
UCGCAGCAAUAUUACGUUCA,-0.883 ± 0.07,0.0196 ± 0.064
GGUGAGCAAUAUUACGUCUG,-3.31 ± 0.17,-2.03 ± 0.14
UCGAAGCAAUAUUACGGACU,-1.07 ± 0.11,0.0804 ± 0.13
AUAAAGCAAUAUUACGGCUU,-0.708 ± 0.1,-0.569 ± 0.12
AUCCAGCAAUAUUACGAUCA,-1.43 ± 0.12,-1.09 ± 0.14
GGACAGCAAUAUUACGGUGU,-2.84 ± 0.11,-1.89 ± 0.12
GAAUAGCAAUAUUACGUAGA,-3.35 ± 0.15,-1.55 ± 0.11
UUUCAGCAAUAUUACGCGCU,-3.54 ± 0.5,–
CCGGAGCAAUAUUACGCCUC,–,-2.47 ± 0.41
UGAUAGCAAUAUUACGCGAC,-3.55 ± 0.28,–
AGAGAGCAAUAUUACGGGUG,-3.31 ± 0.32,–

Sequence,self-splicing fitness (ln) (30 °C),self-splicing fitness (ln) (37 °C)
AAUAAGCAAUAUUACGUGUA,-2.16 ± 0.12,-1.12 ± 0.11
UACCAGCAAUAUUACGCACU,-0.478 ± 0.063,0.393 ± 0.081
GUCGAGCAAUAUUACGUAGA,-2.65 ± 0.17,-1.88 ± 0.24
UUAAAGCAAUAUUACGCACU,-0.0158 ± 0.068,0.681 ± 0.095
GUAGAGCAAUAUUACGGGUA,-4.17 ± 0.35,-1.75 ± 0.19
AGCUAGCAAUAUUACGUUUC,-4.92 ± 0.25,-2.56 ± 0.16
UCCAAGCAAUAUUACGACGU,-0.266 ± 0.068,0.0245 ± 0.073
CCAGAGCAAUAUUACGAUAC,-2.7 ± 0.2,-1.71 ± 0.21
GACAAGCAAUAUUACGCUGU,-3.61 ± 0.25,-1.12 ± 0.2
GUGAAGCAAUAUUACGCGGU,-3.01 ± 0.28,-0.0814 ± 0.17
AUACAGCAAUAUUACGAGAU,-3.35 ± 0.14,-1.18 ± 0.11
AGUCAGCAAUAUUACGCGAG,-1.57 ± 0.16,-0.523 ± 0.16
GUAGAGCAAUAUUACGCGGA,-1.47 ± 0.14,-0.734 ± 0.12
UGGUAGCAAUAUUACGUGAC,-3.97 ± 0.27,-1.05 ± 0.2
GGGGAGCAAUAUUACGUACG,-1.76 ± 0.16,-0.525 ± 0.18
UACCAGCAAUAUUACGCCCU,-0.895 ± 0.12,0.138 ± 0.13
ACGGAGCAAUAUUACGGACC,–,-0.877 ± 0.34
UGUCAGCAAUAUUACGUCUC,-2.3 ± 0.15,-1.86 ± 0.22
UACUAGCAAUAUUACGUUGU,-2.48 ± 0.17,-2.21 ± 0.17
GUAGAGCAAUAUUACGGAAG,-2.83 ± 0.29,-1.42 ± 0.4
GCGUAGCAAUAUUACGUCGG,-2.69 ± 0.21,-3.18 ± 0.24
CUGGAGCAAUAUUACGAGUG,-1.26 ± 0.087,-0.568 ± 0.12
CGAAAGCAAUAUUACGCGGA,-3.29 ± 0.26,-1.83 ± 0.17
GUAAAGCAAUAUUACGAUGG,-1.81 ± 0.081,-0.952 ± 0.1
UGGUAGCAAUAUUACGUAUC,–,-2.38 ± 0.45

Sequence,self-splicing fitness (ln) (30 °C),self-splicing fitness (ln) (37 °C)
AGUCAGCAAUAUUACGCCUC,-2.68 ± 0.32,-1 ± 0.42
GUCAAGCAAUAUUACGCCAU,-4.64 ± 0.42,-3.01 ± 0.18
CCAGAGCAAUAUUACGGAUU,-3.05 ± 0.15,-2.38 ± 0.16
UCGCAGCAAUAUUACGUUAG,-2.74 ± 0.15,-1.63 ± 0.17
UGUUAGCAAUAUUACGUGGU,-4.24 ± 0.19,-2.76 ± 0.14
GACAAGCAAUAUUACGCAUA,-0.868 ± 0.11,-0.12 ± 0.15
AGAUAGCAAUAUUACGAUCU,-1.53 ± 0.14,-0.462 ± 0.17
GACAAGCAAUAUUACGAUAU,-1.33 ± 0.099,-1.4 ± 0.1
GUCUAGCAAUAUUACGCCAG,-2.46 ± 0.4,–
ACUAAGCAAUAUUACGUCUG,-1.37 ± 0.084,-0.847 ± 0.1
ACACAGCAAUAUUACGUCGA,-1.22 ± 0.089,-0.852 ± 0.092
AGCCAGCAAUAUUACGGAUU,-2.85 ± 0.1,-0.534 ± 0.093
GUUCAGCAAUAUUACGCACC,-1.33 ± 0.13,-0.136 ± 0.21
CGCGAGCAAUAUUACGAUAC,-3.81 ± 0.3,-2.56 ± 0.28
UGCAAGCAAUAUUACGUAAA,-1.9 ± 0.087,-1.01 ± 0.12
CUAUAGCAAUAUUACGUUUU,-3.44 ± 0.16,-2.61 ± 0.21
UUUGAGCAAUAUUACGCUUG,-3.52 ± 0.37,-1.63 ± 0.4
GGUAAGCAAUAUUACGGAAU,-3.35 ± 0.22,-1.87 ± 0.22
UCUGAGCAAUAUUACGGCGA,-0.309 ± 0.12,0.122 ± 0.18
CACGAGCAAUAUUACGUGUU,-2.98 ± 0.1,-2.26 ± 0.15
ACCAAGCAAUAUUACGUUGG,-3.54 ± 0.12,-2.22 ± 0.14
AGUCAGCAAUAUUACGUUUU,-1.49 ± 0.074,-0.278 ± 0.088
GCGAAGCAAUAUUACGAUUU,-1.09 ± 0.057,-0.156 ± 0.075
